In IntAct's records for PubMed 15197186:

target: mob1a_human MOB1A (UniProt Q9H8S9)
Sequence (Q9H8S9 whole entry): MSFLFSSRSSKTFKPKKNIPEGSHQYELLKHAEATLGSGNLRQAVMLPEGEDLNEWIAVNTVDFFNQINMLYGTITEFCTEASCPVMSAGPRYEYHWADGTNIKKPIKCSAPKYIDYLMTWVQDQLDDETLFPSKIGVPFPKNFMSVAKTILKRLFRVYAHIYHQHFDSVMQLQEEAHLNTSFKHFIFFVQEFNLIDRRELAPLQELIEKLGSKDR

Sequence of Serine/threonine-protein kinase 38-like (Homo sapiens), Q9Y2H1 Y32A (Q9Y2H1 whole entry Y32A): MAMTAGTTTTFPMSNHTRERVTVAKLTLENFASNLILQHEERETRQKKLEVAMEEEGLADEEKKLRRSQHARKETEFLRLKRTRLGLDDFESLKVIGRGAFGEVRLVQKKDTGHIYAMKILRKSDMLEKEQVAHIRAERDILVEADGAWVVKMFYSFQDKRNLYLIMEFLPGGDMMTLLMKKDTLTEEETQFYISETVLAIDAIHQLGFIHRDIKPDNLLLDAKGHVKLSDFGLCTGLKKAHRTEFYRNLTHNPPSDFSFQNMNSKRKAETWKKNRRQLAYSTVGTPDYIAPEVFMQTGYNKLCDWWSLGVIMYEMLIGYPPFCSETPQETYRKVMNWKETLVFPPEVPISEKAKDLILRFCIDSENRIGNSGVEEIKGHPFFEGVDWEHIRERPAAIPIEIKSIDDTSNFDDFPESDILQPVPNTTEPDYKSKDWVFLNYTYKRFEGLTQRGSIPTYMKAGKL
Sequence of Serine/threonine-protein kinase 38 (Homo sapiens), Q15208 Y31A (Q15208 whole entry Y31A): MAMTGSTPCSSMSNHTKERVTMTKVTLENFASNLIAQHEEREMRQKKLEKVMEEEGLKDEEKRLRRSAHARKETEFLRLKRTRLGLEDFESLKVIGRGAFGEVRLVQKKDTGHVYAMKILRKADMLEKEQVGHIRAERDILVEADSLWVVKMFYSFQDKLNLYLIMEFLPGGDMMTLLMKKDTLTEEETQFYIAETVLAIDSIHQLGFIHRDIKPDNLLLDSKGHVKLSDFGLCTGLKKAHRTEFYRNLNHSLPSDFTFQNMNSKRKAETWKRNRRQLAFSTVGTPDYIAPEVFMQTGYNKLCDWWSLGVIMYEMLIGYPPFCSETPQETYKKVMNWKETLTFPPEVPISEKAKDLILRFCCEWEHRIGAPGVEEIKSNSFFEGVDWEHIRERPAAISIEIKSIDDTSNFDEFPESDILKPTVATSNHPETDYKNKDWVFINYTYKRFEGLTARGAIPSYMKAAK
Sequence of Serine/threonine-protein kinase 38 (Homo sapiens), Q15208 T74A (Q15208 whole entry T74A): as the sequence (Q15208 whole entry Y31A) above, with A31Y, T74A counted along it
Sequence of Serine/threonine-protein kinase 38 (Homo sapiens), Q15208 K24A (Q15208 whole entry K24A): as the sequence (Q15208 whole entry Y31A) above, with K24A, A31Y counted along it
Sequence of Serine/threonine-protein kinase 38 (Homo sapiens), Q15208 R44A (Q15208 whole entry R44A): as the sequence (Q15208 whole entry Y31A) above, with A31Y, R44A counted along it
Sequence of Serine/threonine-protein kinase 38 (Homo sapiens), Q15208 L79A (Q15208 whole entry L79A): as the sequence (Q15208 whole entry Y31A) above, with A31Y, L79A counted along it
Sequence of Serine/threonine-protein kinase 38 (Homo sapiens), Q15208 R78A (Q15208 whole entry R78A): as the sequence (Q15208 whole entry Y31A) above, with A31Y, R78A counted along it
Sequence of Serine/threonine-protein kinase 38 (Homo sapiens), Q15208 R41A (Q15208 whole entry R41A): as the sequence (Q15208 whole entry Y31A) above, with A31Y, R41A counted along it

Row | Substance | effect of a mutation on the interaction
1 | Serine/threonine-protein kinase 38 (Homo sapiens), Q15208 K24A | decreasing interaction
2 | Serine/threonine-protein kinase 38 (Homo sapiens), Q15208 R44A | decreasing interaction
3 | Serine/threonine-protein kinase 38 (Homo sapiens), Q15208 T74A | disrupting interaction
4 | Serine/threonine-protein kinase 38 (Homo sapiens), Q15208 Y31A | disrupting interaction

Next, values leading:

Row | effect of a mutation on the interaction | Substance
5 | decreasing interaction | Serine/threonine-protein kinase 38 (Homo sapiens), Q15208 L79A
6 | disrupting interaction | Serine/threonine-protein kinase 38 (Homo sapiens), Q15208 R41A
7 | disrupting interaction | Serine/threonine-protein kinase 38 (Homo sapiens), Q15208 R78A

target: mob1a_human MOB1A (UniProt Q9H8S9); remark: another data set of the same source

Row | Substance | effect of a mutation on the interaction
8 | Serine/threonine-protein kinase 38-like (Homo sapiens), Q9Y2H1 Y32A | disrupting interaction
